Entries after “also recorded” stand apart in the source; their conditions may differ. Structures can show the parent of a compound that is named as a salt. Values belong to the molecule of their own block, whether it stands above or below them.
How the values were obtained:
[1] = system: mouse model of ATN or ischemia/reperfusion injury; assay: Mouse model of ATN (30 min clamp, contralateral nephrectomy): plasma creatinine; type: in vivo, mice; conditions: for protection against ATN (creatinine, FIG. 17A): mice, 30 minutes of ischemia, 10 μg protein or single dose, 15 min prior to ischemia
Protocol: Male C57BL/6 mice (20-25 gr; Charles River) were anesthetized with intraperitoneal pentobarbital (50 mg/kg) and placed on a heating pad under a warming light to maintain 37© core body temperature. Kidneys were exposed through an abdominal section and the right kidney was either removed or its vascular pedicle and ureter ligated. The vascular pedicle of the left kidney or both kidneys was clamped by a microaneurysm clip (Kent Scientific) for 30 minutes after right nephrectomy. This period of ischemia generated reproducible renal injury but minimized mortality. During the procedure, PBS (0.5 ml) was used to dampen the peritoneum. The animal was closed with 5-0 Nylon. Saline, NGAL, retinol-loaded retinol binding protein (RBP), enterochelin, or desferroxamine mesylate (DFO) were injected into the peritoneum or subcutaneously 15 min. prior to ischemia or 1-2 hr after reperfusion.
After 6 or 24 hr of reperfusion, heparinized plasma, urine and kidney samples were obtained to measure NGAL (polyclonal 1:500), Heme oxygenase-1 (Stressgen, 1:2000), E-cadherin (BD Transduction Labs, 1:2000), N-cadherin (BD Transduction Labs, 1:3000) and GAPDH (Chemicon International, 1:3000) using immunoblots. Plasma was also used for creatinine and blood urea nitrogen colorimetric assays. Sagittal sections of the kidney were fixed in 4% formalin, or were snap frozen for mRNA and protein analysis. Paraffin-embedded sections (5 μm) were stained with hematoxylin-eosin or by an in situ kit (Fluorescein-TUNEL, Roche) for apoptotic nuclei or for total nuclei (Toprol, Molecular Probes). For cell proliferation analysis, BrdU was injected into the peritoneum 1 hour before sacrifice, and cryostat sections were stained with anti-BrdU (Roche) according to the manufacturer.

[2] = Cofactor-dependent ^55Fe binding to NGAL (10 kDa filter retention); conditions: for inhibition of ^55Fe capture by apo-NGAL+urine: competitor: 1000-fold unlabeled iron citrate or 50-fold iron-saturated enterochelin; for retention of ^55Fe: washed on 10 kDa filter
Protocol: The urine fraction was obtained by passing fresh urine sequentially through 10 kDa and 3 kDa membranes (YM-10 and YM-3, Amicon). The mixture was then washed three times on 10 kDa membrane (YM-10, Amicon). Iron-free enterochelin-loaded NGAL (rather than NGAL without siderophore) served as a positive control for iron capture. Ferric citrate (1 mM) or iron-loaded enterochelin (Sid:Fe, 50 μM) were used as competitors of ^55Fe binding.

[3] = Distribution and radioautography of ^55Fe after ^55Fe:Sid:NGAL injection; type: in vivo, mice; conditions: for Silver Grains (% Total): kidney radioautography; for ^55Fe recovered: one hour after 10 μg intraperitoneal
Source text: (§1) Recombinant human and mouse GST-NGAL were expressed in BL21 or XL1-Blue strains of E. coli (Stratagene) with additional ferric sulfate (50 Micro Molar, Sigma-Aldrich Co.). NGAL was isolated using Glutathione Sepharose 4B beads (Amersham Biosciences), eluted by thrombin cleavage (Sigma-Aldrich Co.; St. Louis, Mo.) and then further purified by gel filtration (Superdex75, SMART system, Amersham Biosciences) and examined by Coomassie gels (Biorad). BL-21 derived NGAL was loaded with iron free or iron saturated enterochelin, a siderophore (EMC Microcollections) using a 5 fold molar excess. Unbound siderophore (0.7 KD) was removed by washing (Microcon YM-10) with PBS. To produce ^55Fe or gallium (Ga) loaded NGAL we incubated the iron-free enterochelin NGAL complex with equimolar ^55Fe (18mCi) or Ga in NaCl (150 mM) Hepes (20 mM; pH 7.4) and the complex was washed 3 times (10K filter). Iodobeads (Pierce) were used to label NGAL with ^125I and unincorporated ^125I was removed by gel filtration (PD-10 column) followed by extensive dialysis (7 kDa cut off membrane, Pierce) against PBS. Alexa-568 and fluorescein isothiocyanate (Molecular Probes) was coupled to NGAL, according to the manufacturer, and then extensively dialyzed. Protein concentration was determined by Coomassie gels in comparison with bovine serum albumin standard.
(§2) To detect delivery of NGAL to the kidney rNGAL (10 or 100 μg), Alexa 568-NGAL (100 μg), ^125I-NGAL ([…], 2×10^6 cpm), or ^55Fe loaded enterochelin-NGAL (10 μg, 1×10^6 cpm) was injected into the peritoneum and blood, urine, kidney and liver samples were obtained. NGAL was detected by immunoblot. Alexa-568 NGAL was detected by confocal microscopy (LSM Meta Detector) and NGAL mediated iron trafficking was detected by scintillation counter and by light microscopic radioautography of Epon embedded kidneys. Slides were exposed to emulsion (Polyscience) for 1 week and then developed with Microdol and counterstained with Toluidine blue. To detect lysosomes in the proximal tubule, mice were injected with Fluorescein Dextran (46 kD; 0.5 mg; Sigma) 24 hours before Alexa 568 NGAL injections. LAMP1 (Santa Cruz) was detected in cryostat sections of 4% paraformaldehyde fixed kidneys.

[4] = NGAL trafficking after intraperitoneal or subcutaneous injection; type: in vivo, mice
Source text: as §1, §2

Molecule: CC(=O)N(O)CCCCCNC(=O)CCC(=O)N(O)CCCCCNC(=O)CCC(=O)N(O)CCCCCN [DFO, desferrioxamine mesylate, reference compound]
- protection against ATN (creatinine, FIG. 17A) [1]: failed to protect against ATN; also recorded: ineffective

Molecule: Ferric citrate [iron citrate, reference compound]
- inhibition of ^55Fe capture by apo-NGAL+urine [2]: inhibited
- inhibition of ^55Fe capture by apo-NGAL+urine ([2]; listed as iron-citrate): blocked

- retention of ^55Fe ([2]; in buffer): failed to trap ^55Fe and not
- retention of ^55Fe ([2]; with mouse urine fraction (<3,000 Da)): retains ^55Fe
B1: apo-NGAL: NGAL cloned in BL-21 bacteria; does not contain enterochelin (siderophore free) (protein, UniProt P80188 21-198, looked up)
Neutrophil …: QDSTSDLIPAPPLSKVPLQQNFQDNQFQGKWYVVGLAGNAILREDKDPQKMYATIYELKEDKSYNVTSVLFRKKKCDYWIRTFVPGCQPGEFTLGNIKSYPGLTSYLVRVVSTNYNQHAMVFFKKVSQNREYFKITLYGRTKELTSELKENFIRFSKSLGLPENHIVFPVPIDQCIDG
modifications: siderophore-free
- protection against ATN (creatinine, FIG. 17A) [1]: minimally active
- protection against ATN (creatinine, FIG. 17A) ([1]; listed as apo-Ngal): reduced level of protection

B2: ^55Fe:Sid:NGAL: iron-free enterochelin-NGAL incubated with ^55Fe at 1:1 stoichiometry (protein, UniProt P80188 21-198, looked up)
Neutrophil …: B1 Neutrophil …
modifications: enterochelin loaded with 55Fe
notes: iron-free enterochelin-NGAL incubated with ^55Fe at 1:1 stoichiometry
- Relative SA (% grains/% point count) ([3]; Apical MB): 2.21
- Relative SA (% grains/% point count) ([3]; Basal MB): 0.59
- Relative SA (% grains/% point count) ([3]; Cytosol): 1
- Relative SA (% grains/% point count) ([3]; Glomerular Tuft): 0.11
- Relative SA (% grains/% point count) ([3]; Interstitium): 0.3
- Relative SA (% grains/% point count) ([3]; Lumen): 1.43
- Relative SA (% grains/% point count) ([3]; Nucleus): 0.56
- Silver Grains (% Total) ([3]; Apical MB): 12.91 % Total
- Silver Grains (% Total) ([3]; Basal MB): 3.81 % Total
- Silver Grains (% Total) ([3]; Cytosol): 48.98 % Total
- Silver Grains (% Total) ([3]; Glomerular Tuft): 0.13 % Total
- Silver Grains (% Total) ([3]; Interstitium): 3.71 % Total
- Silver Grains (% Total) ([3]; Lumen): 26.46 % Total
- Silver Grains (% Total) ([3]; Nucleus): 4.02 % Total
- ^55Fe recovered ([3]; kidney): 55%
- ^55Fe recovered ([3]; liver): 2.4%
- ^55Fe recovered ([3]; plasma): 4.3%
- ^55Fe recovered ([3]; spleen): 0.2%
- ^55Fe recovered ([3]; urine): 0.6%

B3: apo-NGAL:Sid:Ga: gallium-loaded enterochelin-NGAL complex (protein, UniProt P80188 21-198, looked up)
Neutrophil …: B1 Neutrophil …
modifications: enterochelin loaded with gallium
notes: gallium-loaded enterochelin-NGAL complex
- creatinine ([1]; gallium complex 15 minutes prior to ischemia): 3.17±0.1
- protection against ATN (creatinine, FIG. 17A) [1]: ineffective
- protection against ATN (creatinine, FIG. 17A) ([1]; listed as apo-Ngal:Sid:Ga): not protected

- retention of ^55Fe ([2]; in buffer): retained
B4: apo-NGAL:Sid: BL-21-cloned NGAL reconstituted with iron-free enterochelin (protein, UniProt P80188 21-198, looked up)
Neutrophil …: B1 Neutrophil …
modifications: complexed with iron-free enterochelin
notes: BL-21-cloned NGAL reconstituted with iron-free enterochelin
- protection against ATN (creatinine, FIG. 17A) [1]: protective effect
- protection against ATN (creatinine, FIG. 17A) ([1]; listed as apo-Ngal:Sid): enhanced the protection of the kidney and blunted the rise in serum creatinine

B5: Alexa-568 NGAL: NGAL coupled to Alexa-568 fluorescent dye (conjugate, UniProt P11672 21-200, looked up)
Neutrophil …: QDSTQNLIPAPSLLTVPLQPDFRSDQFRGRWYVVGLAGNAVQKKTEGSFTMYSTIYELQENNSYNVTSILVRDQDQGCRYWIRTFVPSSRAGQFTLGNMHRYPQVQSYNVQVATTDYNQFAMVFFRKTSENKQYFKITLYGRTKELSPELKERFTRFAKSLGLKDDNIIFSVPTDQCIDN
modifications: Alexa-568 dye
notes: NGAL coupled to Alexa-568 fluorescent dye
- localization of fluorescent NGAL in kidney ([4]; by one hour after injection): localized to large vesicles in the subapical domain of the cortical proximal tubule
- NGAL vesicles also containing dextran (lysosomes) ([4]; one hour after injecting, fluorescein-dextran the day before): 33%

B6: holo-NGAL: NGAL cloned in XL-1Blue bacteria; contains enterochelin and is iron-loaded (protein, UniProt P11672 21-200, looked up)
Neutrophil …: B5 Neutrophil …
modifications: enterochelin, iron-loaded
notes: NGAL cloned in XL-1Blue bacteria; contains enterochelin and is iron-loaded
- protection against ATN (creatinine, FIG. 17A) [1]: rescues renal function
- protection against ATN (creatinine, FIG. 17A) ([1]; listed as holo-Ngal): protected the kidney

B7: [^125I]-NGAL: NGAL labelled with ^125I using Iodobeads (protein, UniProt P11672 21-200, looked up)
Neutrophil …: B5 Neutrophil …
modifications: 125I label
notes: NGAL labelled with ^125I using Iodobeads
- TCA precipitable fraction, kidney-localized protein ([4]; kidney): 70%
- kidney versus liver content per mg protein ([4]; one hour time-point): 13 fold
- TCA precipitable fraction ([4]; plasma): 35%
- TCA precipitable fraction ([4]; urine): 20%

- retention of ^55Fe ([2]; in buffer): not
B8: apo-NGAL:Sid:Fe: BL-21-cloned NGAL reconstituted with iron-saturated enterochelin (protein, UniProt P11672 21-200, looked up)
Neutrophil …: B5 Neutrophil …
modifications: iron-saturated enterochelin
notes: BL-21-cloned NGAL reconstituted with iron-saturated enterochelin
- protection against ATN (creatinine, FIG. 17A) [1]: protective effect
- protection against ATN (creatinine, FIG. 17A) ([1]; listed as apo-Ngal:Sid:Fe): enhanced the protection of the kidney and blunted the rise in serum creatinine
